From the DeepSol protein solubility set

Assay: soluble on expression in E. coli; label from the status in PepcDB or PDB records

Row | Sequence | soluble on expression in E. coli
1 | MAQEKMDLDFEADTSEGATLRRSNSAPLIHVLSDLSQVFEPYPLRTGRTSTAIMSHHSLEEGLDMMNRETTNEREAQAGMQISQSWDESLSLSGSDFDKPEKLYSPKRIDFTPVSPAPSPTRGFGKQCLSPSLQMFVSSSGMPPSPVLNPRHFSRRSQSPVKCIRPSVLGPLKRKGEMEMESQPKRPFQGTTSMLSTNPAQLSDFSSCSDILDGSSISSGLSSDSLATGSAPAESPVACSNSCSPFILMDDLSPK | not soluble
2 | MSLIHAFIKKGCFQDSVSLMIISRKLSESENVDDVSVMMGTPANKALLDTTGFWHDDFNNATPNDICVAIRSEAADAGIAQAIMQQLEEALKQLAQGSGSSQALTQVRRWDSACQKLPDANLALISVAGEYAAELANQALDRNLNVMMFSDNVTLEDEIQLKTRAREKGLLVMGPDCGTSMIAGTPLAFANVMPEGNIGVIGASGTGIQELCSQIALAGEGITHAIGLGGRDLSREVGGISALTALEMLSADEKSEVLAFVSKPPAEAVRLKIVNAMKATGKPTVALFLGYTPAVARDENVWFASSLDEAARLACLLSRVTARRNAIAPVSSGFICGLYTGGTLAAEAAGLLAGHLGVEADDTHQHGMMLDADSHQIIDLGDDFYTVGRPHPMIDPTLRNQLIADLGAKPQVRVLLLDVVIGFGATADPAASLVSAWQKACAARLDNQPLYAIATVTGTERDPQCRSQQIATLEDAGIAVVSSLPEATLLAAALIHPLSPAAQQHTPSLLENVAVINIGLRSFALELQSASKPVVHYQWSPVAGGNKKLARLLERLQEGHHHHHH | soluble
3 | MMTDLSTPDLPRMSAAIAEPTSHDPDSGGHFGGPSGWGGRYVPEALMAVIEEVTAAYQKERVSQDFLDDLDRLQANYAGRPSPLYEATRLSQHAGSARIFLKREDLNHTGSHKINNVLGQALLARRMGKTRVIAETGAGQHGVATATACALLGLDCVIYMGGIDTARQALNVARMRLLGAEVVAVQTGSKTLKDAINEAFRDWVANADNTYYCFGTAAGPHPFPTMVRDFQRIIGMEARVQIQGQAGRLPDAVVACVGGGSNAIGIFHAFLDDPGVRLVGFEAAGDGVETGRHAATFTAGSPGAFHGSFSYLLQDEDGQTIESHSISAGLDYPGVGPEHAWLKEAGRVDYRPITDSEAMDAFGLLCRMEGIIPAIESAHAVAGALKLGVELGRGAVIVVNLSGRGDKDVETAAKWFGLLGND | soluble
4 | EEIHLIAVNELLYVKAEDKYLSLYKVHGATTHEYLLRSSLKELLAQLDPNQFWQIHRSIVVNVGKIDKVTRDFGGKMWVHIDRLQLPVSRALQHLFKVS | not soluble
5 | MGSDKIHHHHHHMEKTAIRIPIFMYSLLTPAWEHKIEAQTDGDPFGDSQPMKEYYGPNGKWLLDGVLRHLNISREDEIAILTTSDERYVSTCVSITCFNYAKISRVVGPNTKVVIVIHEFGYVYPDIKNYVCNLKERGIVVIEDCAHIIGCDINGKKIGSFGDYALFSLPKISPARAGGLLRTTKNIKLPVLNSNLSQLTNIGIAGAEKYLPKYKFFNKGRIERAELLKSQVNDLCNIFEPSHPAVPYFLGIVTSEKSKIETSLPWIEFGATLRNDLVYIPTNPLASINLFELITNTIKNGGKICN | not soluble
6 | MAEGERLYLCGEFTKAIQSFTNALHLQSGDKNCLVARSKCYLKMGDLEKSLNDAEASLRNDPTFCKGILQKAETLYTMGDFEFALVFYHRGYKLRPDREFKVGIQKAQEAINNSVGSPSSIKLENKGDLSFLSKQAESKKAQQKHLPIKQLSYSTKHEIKRKGSLKSEKTVRQLLGELYVDKEYLEKLLLDEDLIKGTIKSGLTVEDLIMTGINYLDTRSNFWRQQKPIYARERDRKLMQEKWLRDRKRSPSQTAHYILKSLEDIDMLLTSGSADGSLQKAEKVLKKVLEWNQEEVPNKDELVGNLYSCIGNAQIELGQMVAALQSHRKDLEIAKEHDLPDAKSRALDNIGRVFARVGKFQQAIDVGGEDPSSQNHPGEDLALPRDWPLLLGAGPGVAGPELWGKVSAVR | soluble
7 | MADIGSTYNGPLSSHWFPEELAQWEPDSDPDAPFNRSHVPLEPGRVADRVNANADTDAHLVSLSALNRHTSGVPSQGAPVFYENTFSYWHYTDLMVYWAGSAGEGIIVPPSADVIDASHRNGVPILGNVFFPPTVYGGQLEWLEQMLEQEEDGSFPLADKLLEVADYYGFDGWFINQQTEGADEGTAEAMQAFLVYLQEQKPEGMHIMWYDSMIDTGAIAWQNHLTDRNKMYLQNGSTRVADSMFLNFWWRDQRQSNELAQALGRSPYDLYAGVDVEARGTSTPVQWEGLFPEGEKAHTSLGLYRPDWAFQSSETMEAFYEKELQFWVGSTGNPAETDGQSNWPGMAHWFPAKSTATSVPFVTHFNTGSGAQFSAEGKTVSEQEWNNRSLQDVLPTWRWIQHGGDLEATFSWEEAFEGGSSLQWHGSLAEGEHAQIELYQTELPISEGTSLTWTFKSEHGNDLNVGFRLDGEEDFRYVEGEQRESINGWTQWTLPLDAFAGQTITGLAFAAEGNETGLAEFYIGQLAVGADSEKPAAPNVNVRQYDPDPSGIQLVWEKQSNVHHYRVYKETKHGKELIGTSAGDRIYLEGLVEESKQNDVRLHIEALSETFVPSDARMIDIKSGSF | soluble
8 | MGSDKIHHHHHHMSIRGKAFIVGAYEHPGRNLPDHSVQQIHAECAMGALSDAGLSIKDVDGYFSNGQLGFGGISMAEYLGLRLSYIDSTFTGGSSYMAHVGHAAAAIAAGKCKVALITQGAKVRGVIRGAKHTADTPEFPFETVYGETNAAIYALAARRHMHEYGTTAEQLAAVKVAAAAYAQHNPNALLRKLVSIDDVMNSPIIADPLHRLDCCVVTDGGGALVLVAPEIARSLKRQSVKLLGHAEAIRHGGDGPSDFASTAAALSGPRAFTEAGVSPRDVRYASIYDSFTITVIMTLEDLGFCGKGEGGAFVASGALGLDGLLPINTDGGGLCNNHPGYQGGMVRTIEAVRQLRGEANPNTQVKNCTIALAHGTGGGMSRHASVTLVLGQEDA | not soluble
9 | MAVTISGVRKHSPAYRHGIQAGERLLTLNGNEIMDVLDYRFYQLNTALVLELENNRGERRTVSLKKPEYEEIGLEFETYLMDRQHSCKNKCVFCFIDQLPKGLRKSLYFKDDDSRLSFLFGNYVTLTNLTEHEISRIIKMHISPMNISVHTTNPELRVKMMKNPRAGEALSIIRRFAQAGIKINCQIVLCPGYNDGEELKRTLSDLETMCPQVQAVAVVPVGITRYRQNLPEMRSFTRETAGEAIDLIESFGEKCLQKYGTRVAYPGDEFYLKAERPLPPAGFYEDFSMLENGVGLLPLLMDEFYSALEEAGETGGRKREITIATGMAPREYIRGFLDDAIKKFPHISGRVTPIVNRFFGETITVSGLVTGTDLIEQLSSVDLGDELLIPACMLRREGDLFLDDVSLQDVEAALKVPVRPVPNDGYAFLDAILGSESLEHHHHHH | not soluble
10 | AKKIGIEQSLSDVEAALKEKGYDVVMMKSPADAQGCDCCVVTGLDNNVQGIADTVTQAPVITASGMTAEEICSEVESRIQ | not soluble
11 | SDSDSGEQSEGELSPGHESFNSKSLALQAQKKILSKMATMAVANLLTDDTSSEILDELYKASREYTKSKKEAHKIIKDVIKIALKIGILYRNHQFSPEEMETVERFKKKMNQAAMTVVSFYEVEYTFDRGILSELLLECRDLLHELVEHHLTMRSHGRIDHVFNHFADVDFLTELYGPSEDYRLNLRKICDGINKLLDEGTL | soluble
12 | MGSDKIHHHHHHMDFKQVQQSFIDYIRDPQRPVPVGVPLARMQVYRELFFNNVMGFVSNGFPVLKSLYTDEQWQTLVQAFFGQHDCKSPVFIDIAGEFLDFLQFQYSPMDSDPPFMLELAHYEWLELRVATAQQDDRQELIGKEDITYRNLCLAATASVAQYQYPVQQIRPDYRPSEPLVNPVYFCLYQDEVGEVGFLQLTPLSAQVLGYLTEKGQGTFDELTQWLAATYPQMPTETLTQGCLALLEQLATKSIVRGV | not soluble
13 | MSTVLGTFKRMNEGWTQWPSYGHAFGVRLHKLRRLRGLTQDGLAEIANLSRNQISNLERNENSATKSSDPTMSTIYRLARALHVPPAALMPAVGDYVTDICQDTGHELPIDIAWPTSSQDTQKFSIQYRYRYWDEQSPLFDDEDWDDDHADDPDFGIAVMPETSDNNDADTTKGGDDTEDRGDVDKRDDDPLA | not soluble
14 | MGSDKIHHHHHHMKDNPISPTIPLDQDGVHHGFLKLPYSRDDSAWGSVMIPITVIQNGAGKTALLTGANHGDEYEGPVALQELAATTRAEDVTGRLIIVPYFNYPAFRASARTSPIDRGNLNRAFPGRPDGTVTQKIADYFQRTLLPMADVAVDFHSGGKTLDFVPFAAAHILEDKVLQDACFAAMQAFNAPYSVQLLEIDSEGMYDTAVEEMGKVLVTTELGGGGMSTARSNAIAKKGLRNVLIHFGILQGEMQIDPSVTLDMPDGDCYLFSEHDGLFEIMIDLGEPVQEGDLVARVWSPDRTGEAPVEYRARRSGVLISRHFPGMIKSGDCAAVIGVVEG | not soluble
15 | MKLYQHIETLWDYMQLKQDLKPADCLFVMCSNDVRVAEHAAALYHQKLAPLIVFSGGEGRFTDGLFEKSEAETFADIARLAGVPSDAILVETRSTNSGENVRFTEQLLKEKGIQCESIILVQKPFMERRAIATFEKQWQSPYSQVQVSSTAHPFFEYINEDMPLMMVLEALMEDFSRVKSYPEKGFQTKQDIPNQVDSSYQVLLERFGFDLVLEHHHHHH | not soluble
16 | MSKSEKQQLAPWVEKYRPKVLADIVGNENIVERLKVIGHEGNVPNIVLSGPPGCGKTTSVWALARELLGDKVKEAVLELNASDERGIDVVRHRIKTFAQTKVTLPEGRHKIIILDEADSMTDGAQQALRRTMEMYTKTTRFALACNQSEKIIEPIQSRCALLRYTKLSPVQLLTRVKEVAKAEKVNYDDGGLEAILFTAQGDMRQALNNLQATVNAYELVNKENVLKVCDEPHPDLMIKMLHYCTDRKFFEASKIIHEFHRLGFSSDDIVSTLFRVVKTVELSKNVSEQLRMEYIRQIAMCHMRIVQGLTSKLQLSRLIADLCRVSAAATATSA | not soluble
17 | MAKQRVFIAGHRGMVGSAIRRQLEQRGDVELVLRTRDELNLLDSRAVHDFFASERIDQVYLAAAKVGGIVANNTYPADFIYQNMMIESNIIHAAHQNDVNKLLFLGSSCIYPKLAKQPMAESELLQGTLEPTNEPYAIAKIAGIKLCESYNRQYGRDYRSVMPTNLYGPHDNFHPSNSHVIPALLRRFHEATAQKAPDVVVWGSGTPMREFLHVDDMAAASIHVMELAHEVWLENTQPMLSHINVGTGVDCTIRELAQTIAKVVGYKGRVVFDASKPDGTPRKLLDVTRLHQLGWYHEISLEAGLASTYQWFLENQDRFRG | soluble
18 | MIESERKQIIDLIKKEVIPAIGCTEPIAVALCVAKAAETLGMKPEKIEVLLSANILKNAMGVGIPGTDMVGLPIAVALGALIGRSEYQLEVLRDCTPEAVEQGKLFIAEKRICISLKEDITEKLYIEVICTAGSQKATAVIAGGHTTFVYIATDEKVLLDKQQTANEEEEDASLELNLRKVYDFALTSPLDEIRFILDTARLNKAAAEQAFKGNYGHSLGKMLRGTYEHKVMGDSVFSHILSYTSAACDARMAGAMIPVMSNSGSGNQGISATLPVVVFAEENGKTEEELIRALMLSHLTVIYIKQSLGRLSALCGCVVAATGSSCGITWLMGGNYNQVAFAVQNMIANLTGMICDGAKPSCALKVTTGVSTAVLSAMMAMEDRCVTSVEGIIDEDVDQSIRNLTRIGSQAMNETDKMVLDIMTHKGGC | not soluble
